IntAct's records for PubMed 22474355

B1: RNA-silencing factor ers1 (Schizosaccharomyces pombe (strain ATCC 38366 / 972)), O94717 (parent)
chain: MGKVSANNQSGFFKFYIDTALLLNAEFISSFTNCINSEYNGKVKISYSSSSQQFKVIVYEEHKREAFSLFEEIVQKLKRESTVYKKPRLDIHPFGQLHYDFTTLLNFQRYLDLGYGIEDVKIKENEDIVKSKVGKKPTSSDFYIPCLIKPKIITPFEWEGNFKQVIYSPTVYNGSFKRLFYLPDNNDLLKEFAHATNTKYKASLKDNKIVVLANNDQDINAMLEKMKHIENLVSQKVYEYPEETLVYAGKIAPCQLKFLKLKFENEILYTAMHTTSIFKSVFNILGSFYTMRLLRNKHDGDSYELVPVFAKNPSKTPPCNDNFKIFSDDIKLIGCKIFAGVSLNFSSPKPAHRFYELNKTSSNLSIPVLQKPSNFHSSSTELSDNSIHQGRRAVDPVVNQNNPSNFEEMIMNKLNKLPTIDKQILGTSSLTHFQDKTTAIEHSINKSNSKQPPRFKFQLPPRPTSNTLPLEPEEELVTRYSVSSDGNTVDEAITKQSQTFQLVNSNEFNEVNANDVHKSLRQNCAKLDFDDSKSKNLLSVECLELDKGSDCSTPKSGSLTPSIDMKFLRLQDEKMDDLGDNYYTILMSSNPVSSYGVGSLYLFQPKIVCSEKYINHEEIDNMNLKSLHRWLSRSLHVLQSFSGEIELNLEFGVILYPNISSDVSACSHGFMNIYKDLNLPRSYFADCITKSVSNIDSLLNTPVKILFGRTEYTYPLIEHEVLDSKNYFVFKGSLLFTDDKRNKTEDSTVFFSMICSSKLDQFAFYKDSKQSSTCTINFPLALWDSRLRIETKVPLNDAILTEFSKSIRFRNVNKDLLLVFGNMEDRVIIHSVTRINENSVPFNKNLLPHSLEFILKCSKVKSYDISPSSINSKEAFVCLDRSKESKPIESCFSLSIQSVYMQSQFKYNNSIRAGETAPWKLANKQFIGGAITENVSDLYTAAIIMVNQLGGIHPTI
partner: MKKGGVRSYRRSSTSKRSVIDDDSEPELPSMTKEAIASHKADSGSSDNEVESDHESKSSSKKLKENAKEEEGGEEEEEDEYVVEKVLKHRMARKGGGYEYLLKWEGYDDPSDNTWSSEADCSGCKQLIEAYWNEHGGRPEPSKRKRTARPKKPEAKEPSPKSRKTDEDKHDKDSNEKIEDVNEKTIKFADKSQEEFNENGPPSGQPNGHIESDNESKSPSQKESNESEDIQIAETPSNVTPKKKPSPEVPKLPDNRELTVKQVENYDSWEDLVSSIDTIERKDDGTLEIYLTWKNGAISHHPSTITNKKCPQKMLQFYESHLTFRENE
B2: RNA-silencing factor ers1 (Schizosaccharomyces pombe (strain ATCC 38366 / 972)), O94717 (parent)
chain: B1 chain
partner: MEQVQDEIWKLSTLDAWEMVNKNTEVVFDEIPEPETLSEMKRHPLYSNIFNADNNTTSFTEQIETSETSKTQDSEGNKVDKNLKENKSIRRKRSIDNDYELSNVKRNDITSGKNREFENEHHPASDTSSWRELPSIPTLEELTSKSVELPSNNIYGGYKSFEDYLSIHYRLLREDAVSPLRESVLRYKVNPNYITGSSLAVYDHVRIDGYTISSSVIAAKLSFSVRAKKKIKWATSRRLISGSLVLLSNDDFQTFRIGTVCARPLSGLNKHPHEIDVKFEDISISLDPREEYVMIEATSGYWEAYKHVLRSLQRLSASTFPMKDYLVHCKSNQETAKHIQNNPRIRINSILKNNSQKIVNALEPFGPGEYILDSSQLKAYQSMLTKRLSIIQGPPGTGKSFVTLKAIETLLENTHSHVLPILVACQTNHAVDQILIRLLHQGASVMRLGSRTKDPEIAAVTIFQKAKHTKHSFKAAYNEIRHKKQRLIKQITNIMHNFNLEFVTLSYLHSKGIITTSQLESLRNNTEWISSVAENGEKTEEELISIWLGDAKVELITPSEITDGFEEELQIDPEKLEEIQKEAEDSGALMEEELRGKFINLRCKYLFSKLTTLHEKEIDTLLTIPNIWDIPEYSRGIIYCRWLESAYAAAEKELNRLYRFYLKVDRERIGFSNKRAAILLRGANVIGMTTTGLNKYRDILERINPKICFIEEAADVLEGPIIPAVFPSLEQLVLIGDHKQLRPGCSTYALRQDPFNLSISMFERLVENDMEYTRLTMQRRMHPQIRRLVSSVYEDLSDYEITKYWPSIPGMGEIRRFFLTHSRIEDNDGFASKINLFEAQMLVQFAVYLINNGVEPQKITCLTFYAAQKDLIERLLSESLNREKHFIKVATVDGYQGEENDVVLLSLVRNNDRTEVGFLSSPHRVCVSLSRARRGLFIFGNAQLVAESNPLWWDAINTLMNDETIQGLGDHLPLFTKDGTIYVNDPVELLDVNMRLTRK

Variants of: B1
Details: with swi6_schpo swi6, P40381

Variant | effect of a mutation on the interaction
S234P | decreasing interaction strength

Variants of: B2
Details: with hrr1_schpo hrr1, O74465

Variant | effect of a mutation on the interaction
S234P | decreasing interaction strength
